Experimental findings from doi:10.1101/2025.05.23.655772, “A Proteolytic Switch: USP5 controls SDE2 function via UBL-directed cleavage” (bioRxiv, 2025) are described below.

First the molecules themselves.
B1: ubiquitin-specific protease 5, wild type (enzyme, human, UniProt P45974 1-858, looked up)
chain: MAELSEEALLSVLPTIRVPKAGDRVHKDECAFSFDTPESEGGLYICMNTFLGFGKQYVERHFNKTGQRVYLHLRRTRRPKEEDPATGTGDPPRKKPTRLAIGVEGGFDLSEEKFELDEDVKIVILPDYLEIARDGLGGLPDIVRDRVTSAVEALLSADSASRKQEVQAWDGEVRQVSKHAFSLKQLDNPARIPPCGWKCSKCDMRENLWLNLTDGSILCGRRYFDGSGGNNHAVEHYRETGYPLAVKLGTITPDGADVYSYDEDDMVLDPSLAEHLSHFGIDMLKMQKTDKTMTELEIDMNQRIGEWELIQESGVPLKPLFGPGYTGIRNLGNSCYLNSVVQVLFSIPDFQRKYVDKLEKIFQNAPTDPTQDFSTQVAKLGHGLLSGEYSKPVPESGDGERVPEQKEVQDGIAPRMFKALIGKGHPEFSTNRQQDAQEFFLHLINMVERNCRSSENPNEVFRFLVEEKIKCLATEKVKYTQRVDYIMQLPVPMDAALNKEELLEYEEKKRQAEEEKMALPELVRAQVPFSSCLEAYGAPEQVDDFWSTALQAKSVAVKTTRFASFPDYLVIQIKKFTFGLDWVPKKLDVSIEMPEELDISQLRGTGLQPGEEELPDIAPPLVTPDEPKGSLGFYGNEDEDSFCSPHFSSPTSPMLDESVIIQLVEMGFPMDACRKAVYYTGNSGAEAAMNWVMSHMDDPDFANPLILPGSSGPGSTSAAADPPPEDCVTTIVSMGFSRDQALKALRATNNSLERAVDWIFSHIDDLDAEAAMDISEGRSAADSISESVPVGPKVRDGPGKYQLFAFISHMGTSTMCGHYVCHIKKEGRWVIYNDQKVCASEKPPKDLGYIYFYQRVAS
notes: ubiquitin-specific protease 5 (USP5), human; No removal of the His tag is described; also called USP5; USP5^WT; source: E. coli BL21 (DE3), purified (Ni-NTA, SEC)
B2: catalytically inactive USP5 C335A (enzyme, human, UniProt P45974 1-858, looked up)
chain: MAELSEEALLSVLPTIRVPKAGDRVHKDECAFSFDTPESEGGLYICMNTFLGFGKQYVERHFNKTGQRVYLHLRRTRRPKEEDPATGTGDPPRKKPTRLAIGVEGGFDLSEEKFELDEDVKIVILPDYLEIARDGLGGLPDIVRDRVTSAVEALLSADSASRKQEVQAWDGEVRQVSKHAFSLKQLDNPARIPPCGWKCSKCDMRENLWLNLTDGSILCGRRYFDGSGGNNHAVEHYRETGYPLAVKLGTITPDGADVYSYDEDDMVLDPSLAEHLSHFGIDMLKMQKTDKTMTELEIDMNQRIGEWELIQESGVPLKPLFGPGYTGIRNLGNSAYLNSVVQVLFSIPDFQRKYVDKLEKIFQNAPTDPTQDFSTQVAKLGHGLLSGEYSKPVPESGDGERVPEQKEVQDGIAPRMFKALIGKGHPEFSTNRQQDAQEFFLHLINMVERNCRSSENPNEVFRFLVEEKIKCLATEKVKYTQRVDYIMQLPVPMDAALNKEELLEYEEKKRQAEEEKMALPELVRAQVPFSSCLEAYGAPEQVDDFWSTALQAKSVAVKTTRFASFPDYLVIQIKKFTFGLDWVPKKLDVSIEMPEELDISQLRGTGLQPGEEELPDIAPPLVTPDEPKGSLGFYGNEDEDSFCSPHFSSPTSPMLDESVIIQLVEMGFPMDACRKAVYYTGNSGAEAAMNWVMSHMDDPDFANPLILPGSSGPGSTSAAADPPPEDCVTTIVSMGFSRDQALKALRATNNSLERAVDWIFSHIDDLDAEAAMDISEGRSAADSISESVPVGPKVRDGPGKYQLFAFISHMGTSTMCGHYVCHIKKEGRWVIYNDQKVCASEKPPKDLGYIYFYQRVAS
notes: ubiquitin-specific protease 5 (USP5), human, catalytic cysteine mutated; The His tag is used for detection in the TR-FRET assay; also called His-USP5^C335A; source: E. coli BL21 (DE3), purified (Ni-NTA, SEC)

Common to all, as to conditions: both partners purified
In one series the target is T1, monoubiquitin (UniProt P0CG48 1-76).
T1 construct: ubiquitin, the mature monomer
Kind of series: ITC; ITC200 at 298 K; 50 mM HEPES, 100 mM NaCl, 1 mM TCEP, pH 7.5; SDE2 construct or monoubiquitin titrated into USP5 (10-12 µM); duplicate. In general terms: ITC needs no label: the signal is the heat of the interaction.

In series [1] the target is B1. The series is described as follows: thermal shift assay; USP5^WT incubated with ABP for 1 h at 37 °C in PBS, 1 mM DTT, then SYPRO orange, 10-95 °C; Tm of the USP5-ABP covalent complex; triplicate.
Series [2] has as its target B1. The series is described as follows: ITC; ITC200 at 298 K; 50 mM HEPES, 100 mM NaCl, 1 mM TCEP, pH 7.5; SDE2 construct or monoubiquitin titrated into USP5 (10-12 µM); duplicate.
For series [3], the target named is B2. The series is described as above.

What is called Kd is a measure of binding affinity in units of concentration. Read a low Kd as a tighter complex.

Turning to B1, in the series with monoubiquitin, the binding result was “binds”.

As for B2, the binding result with monoubiquitin is given as “binds”.

B3: HA-SDE2UBL-PA, activity-based probe derived from SDE2UBL (domain or fragment, human, UniProt Q6IQ49 1-76, looked up)
chain: MAEAAALVWIRGPGFGCKAVRCASGRCTVRDFIHRHCQDQNVPVENFFVKCNGALINTSDTVQHGAVYSLEPRLCG
modifications: Gly77 replaced with a propargyl electrophilic warhead (C-terminal propargylamine)
notes: Silencing Defective 2 (SDE2), human, residues 1-76 (SDE2UBL with Gly77 truncated); Forms a covalent adduct with the catalytic cysteine of reactive enzymes; also called HA-SDE2UBL-ABP; SDE2UBL-ABP; not shown: HA, N-terminal, kept
For the molecule B3, the “Tm of the covalent complex” value in series [1] was determined as 56.4 ± 0.2 °C.

B4: SDE2 N-terminal ubiquitin-like domain, SDE2UBL(1-77) (domain or fragment, human, UniProt Q6IQ49 1-77, looked up)
chain: MAEAAALVWIRGPGFGCKAVRCASGRCTVRDFIHRHCQDQNVPVENFFVKCNGALINTSDTVQHGAVYSLEPRLCGG
notes: Silencing Defective 2 (SDE2), human, residues 1-77 (ubiquitin-like domain ending in the Gly-Gly motif); source: E. coli BL21 (DE3), purified (Ni-NTA, SUMO protease cleavage, SEC); not shown: His, N-terminal, cleaved; SUMO, N-terminal, cleaved
For the molecule B4, the values for the Kd in series [2] and in series [3] were 26.6 ± 5 µM and 1.67 µM, respectively.
